Publication PMC11672753 (2024)

Molecular target: neonatal Fc receptor FcRn (FcRn-SmBiT) (UniProt P55899 24-297)
Test: competition with IgG-LgBiT tracer (Lumit FcRn assay)

Chain of neonatal Fc receptor FcRn (FcRn-SmBiT) (P55899 24-297, chain 1 of 2): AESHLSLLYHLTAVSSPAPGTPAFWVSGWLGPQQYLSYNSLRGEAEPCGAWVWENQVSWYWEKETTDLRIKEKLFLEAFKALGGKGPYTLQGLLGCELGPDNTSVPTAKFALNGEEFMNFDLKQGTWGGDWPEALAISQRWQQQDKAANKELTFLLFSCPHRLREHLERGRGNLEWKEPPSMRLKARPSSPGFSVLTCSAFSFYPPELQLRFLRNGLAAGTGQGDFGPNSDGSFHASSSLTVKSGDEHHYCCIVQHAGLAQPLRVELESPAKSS
Chain of neonatal Fc receptor FcRn (FcRn-SmBiT) (chain, as listed by the source, chain 2 of 2): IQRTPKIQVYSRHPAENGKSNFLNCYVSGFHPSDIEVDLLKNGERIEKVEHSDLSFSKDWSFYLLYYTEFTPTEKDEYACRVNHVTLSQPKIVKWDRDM

B1: S15-FX (Fc fusion)
chain 1: QVQLLESGGGLVQPGGSLRLSCAASGFTFSSYAMSWVRQAPGKGLEWASAISGSGGSTYYADSVEGRFTISRDNSKNTLYLQMNSLRAEDTAVYYCAKDTGYCGDDCYIKLIRGGPDYWGQGTLVTVSS
chain 2: DIVMTQSPLSLPVTLGQPASISCRSSQSLVYSDGNTFLNWFQQRPGQSPRRLIYQVSNRDSGVPDRFSGSGSGTDFTLKISRVEAEDVGVYYCMQGTHWPRTFGQGTKLEIK
modifications: N-linked glycan at Asn297 devoid of core α-1,3-fucose and β-1,2-xylose; predominantly complex GnGn (52%–54%) and M5-M9 high mannose type (22%–24%); ~15% unglycosylated sites
  IC50: 19.5 µg/mL

B2: S15-HDEL (Fc fusion)
chain 1: B1 chain 1
chain 2: B1 chain 2
modifications: N-linked glycan at Asn297: 88%–92% high-mannose-type N-glycans, less than 2% with α-1,3-fucose and β-1,2-xylose
  IC50: 8.58 µg/mL

B3: S15-YTE (Fc fusion)
chain 1: B1 chain 1
chain 2: B1 chain 2
modifications: N-linked glycan at Asn297, absent in a larger percentage (>10%) of antibodies
  IC50: 11.8 µg/mL

B4: S15 (plant-produced COVA2-15, single-chain (sc)Fv-Fc format) (Fc fusion)
chain 1: B1 chain 1
chain 2: B1 chain 2
modifications: N-linked glycan at Asn297, major glycoforms complex type with α-1,3 fucose and β-1,2-xylose (GnGnXF)
  IC50: 32.8 µg/mL
